Experiments:
YC157-ΔbFos = assay: split reporter (BiFC, NanoBiT)
YC157-bFos = YC157-bFos (UniProt P01100 118-210); assay: split reporter (BiFC, NanoBiT); conditions: partners not purified
Sequence of YC157-bFos (P01100 118-210): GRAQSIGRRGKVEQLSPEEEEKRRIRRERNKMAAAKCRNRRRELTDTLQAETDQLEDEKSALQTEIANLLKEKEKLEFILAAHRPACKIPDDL

B1: YN157-bJun (domain or fragment, UniProt P05412 257-318, looked up)
chain: RKRMRNRIAASKCRKRKLERIARLEEKVKTLKAQNSELASTANMLREQVAQLKQKVMNHVNS
fluorescence-positive cell ratio (YC157-ΔbFos): 0.5%
percentage of fluorescent cells, fold over the negative group (YN157-bJun + YC157-ΔbFos) (YC157-bFos): 7 fold
signal-to-noise ratio of all cells (against YN157-bJun + YC157-ΔbFos) (YC157-bFos): 33 ratio
signal-to-noise ratio of fluorescent cells (against YN157-bJun + YC157-ΔbFos) (YC157-bFos): 4 ratio
